Biological target: human GLP-1 receptor (human) (UniProt P43220)
Experiment: cell-based or functional assay

Sequence of human GLP-1 receptor (human) (P43220 24-463): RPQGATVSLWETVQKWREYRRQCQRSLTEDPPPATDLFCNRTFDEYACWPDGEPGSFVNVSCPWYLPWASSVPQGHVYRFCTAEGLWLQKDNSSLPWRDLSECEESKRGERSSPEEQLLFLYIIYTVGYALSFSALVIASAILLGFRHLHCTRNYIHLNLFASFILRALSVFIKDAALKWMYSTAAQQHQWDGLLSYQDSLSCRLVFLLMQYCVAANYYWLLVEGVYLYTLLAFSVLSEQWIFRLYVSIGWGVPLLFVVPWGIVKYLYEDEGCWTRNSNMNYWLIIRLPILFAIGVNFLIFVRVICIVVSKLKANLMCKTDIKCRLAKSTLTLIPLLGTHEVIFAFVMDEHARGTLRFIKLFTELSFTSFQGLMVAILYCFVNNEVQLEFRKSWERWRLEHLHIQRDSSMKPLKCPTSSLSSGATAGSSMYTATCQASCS

EC50 of cAMP formation (AlphaScreen, Assay XI), relative to that of compound G1 (times the EC50 of compound G1): 5
Substance: N-epsilon37-[2-(2-{2-[2-(2-{2-[(S)-4-Carboxy-4-({trans-4-[(19-carboxynonadecanoylamino)methyl]cyclohexanecarbonyl}amino)butyrylamino]ethoxy}ethoxy)acetylamino]ethoxy}ethoxy)acetyl][DesaminoHis7,Glu22,Arg26,Arg34,Lys37]GLP-1-(7-37) (peptide)
